Measurements published in patent US20110008340A1 (published 2011).

T1: TSR5 peptide (human)
T1 construct: Synthetic peptide 'corresponding to TSR5'; also called TSR5 segment of properdin
T1 peptide: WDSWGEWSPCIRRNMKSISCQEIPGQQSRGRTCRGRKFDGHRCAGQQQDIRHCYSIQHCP

T2: TSR6 peptide (human)
T2 construct: Synthetic peptide 'corresponding to TSR6'; also called TSR6 segment of properdin
T2 peptide: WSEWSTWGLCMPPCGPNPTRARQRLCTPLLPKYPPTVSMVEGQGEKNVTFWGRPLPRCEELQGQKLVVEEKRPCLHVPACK


Columns and labels:
human C3b = human C3b (human, UniProt P01024 23-667; P01024 749-1663, limits assumed); test: cell-based or functional assay
TSR5 peptide = target: T1, TSR5 peptide; test: ELISA on plate-bound peptide
Method: (§1) Screening Assay: Microtiter plates were coated with peptide⁷¹⁻¹¹⁰. (2.0 μg/50 μl per well), TSR5 and TSR6 peptides in phosphate buffered saline (PBS) overnight at 4° C. After aspirating the peptide solutions, the wells were blocked with PBS containing 1% bovine serum albumin (BSA) for 2 hours at room temperature. Wells without peptide coating served as background controls. […] The plate was incubated at room temperature for 1-hour. The plate developed using standard ELISA methods described above.

TSR6 peptide = target: T2, TSR6 peptide; test: ELISA on plate-bound peptide
Method: as §1

Row | Binder | IC50 of inhibition of MAC (C5b-9) formation, LPS-coated wells, 10% normal human serum (human C3b) | binding result (TSR5 peptide) | binding result (TSR6 peptide)
1 | RYRRCVGWNG [Properdin peptide RYRRCVGWNG (99-108)] | ~50 µg/mL | – | –
2 | MoAb^71-110 (antibody, V domains shown, Mouse monoclonal antibody from a hybridoma; also called MoAbB^71-110; anti properdin antibody clone MoAb^71-110) VH: QVLLQQSAPELARPGASVKMSCTASGYIFTNYPIHWVKQRPGQGLEWIGFIDPGGGYDEPDERFRDRATLTADKSSSTAYMQLSSLTSEDSAIYYCARRGGGYYLDYWGQDTTLTVSA VL: SIVMTQTPKFLLVSAGDRITITCKASQSVNNDVAWYQQKPGQSPKLLIYYASNRYTGVPDRFTGSGYGTDFTFTITTVKAEDLAVYFCQQDYSSPLTFGAGTKLELK | – | no binding | no binding
